The record followed here is US20200283773.

pKd: −log10 of the molar value.

This data set concerns the target nucleolin on surface of HCT116 p53-/- cells (Homo sapiens) (UniProt P19338). Description: flow. Particulars: 2'-F pyrimidines, unit inferred.

In general, pKd refers to the Kd on a negative log10 scale, so that one unit is a factor of ten.

Chain of nucleolin on surface of HCT116 p53-/- cells (Homo sapiens) (P19338 2-710): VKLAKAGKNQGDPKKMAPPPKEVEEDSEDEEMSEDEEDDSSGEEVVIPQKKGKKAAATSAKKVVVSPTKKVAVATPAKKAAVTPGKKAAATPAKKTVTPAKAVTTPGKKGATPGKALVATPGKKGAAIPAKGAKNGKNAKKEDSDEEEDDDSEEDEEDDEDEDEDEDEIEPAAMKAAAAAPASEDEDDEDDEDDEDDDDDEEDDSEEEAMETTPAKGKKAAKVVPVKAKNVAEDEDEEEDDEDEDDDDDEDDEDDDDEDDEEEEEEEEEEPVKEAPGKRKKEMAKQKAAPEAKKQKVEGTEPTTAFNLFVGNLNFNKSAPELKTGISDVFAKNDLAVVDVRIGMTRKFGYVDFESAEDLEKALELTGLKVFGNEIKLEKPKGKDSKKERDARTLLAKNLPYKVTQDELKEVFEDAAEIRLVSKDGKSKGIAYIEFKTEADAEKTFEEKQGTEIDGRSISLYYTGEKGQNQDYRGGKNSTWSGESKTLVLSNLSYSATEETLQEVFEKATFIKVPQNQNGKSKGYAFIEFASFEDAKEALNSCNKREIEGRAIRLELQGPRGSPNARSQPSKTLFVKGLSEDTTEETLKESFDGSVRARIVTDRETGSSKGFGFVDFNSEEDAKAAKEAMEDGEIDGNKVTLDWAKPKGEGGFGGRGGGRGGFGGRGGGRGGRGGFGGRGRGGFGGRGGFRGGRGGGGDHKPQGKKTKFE

In turn, “GGAAGAGGGAUGGGCACGGUCCAGCGCUAACUGUACCUGCUGUGCCACCCACC [Ev5]” had a negative logarithm of the Kd (pKd) (DL650-labeled Ev5, HCT116 p53-/- cells, Bmax 2.064) of 7.29.
Turning to “GGGAGAGAGGAAGAGGGAUGGGCACGGUCCAGCGCUAACUGUACCUGCUGUGCCACCCACCG [Ev3]”, for the setting “DL650-labeled Ev3, HCT116 p53-/- cells, Bmax 3.214”, the negative-log Kd (pKd) was 6.92.
